Conditions: Bacillus caldolyticus, pH 7, Thermal, Na cacodylate/HCl 0.1 M, reversible: Yes, whole UniProt chain shown

B1: Cold shock protein CspB wild type, P41016 (protein)
chain: MQRGKVKWFNNEKGYGFIEVEGGSDVFVHFTAIQGEGFKTLEEGQEVSFEIVQGNRGPQAANVVKL
CD
  Tm: 76.9 °C
  unfolding enthalpy (van 't Hoff): 58.6 kcal/mol
DSC
  Tm: 76.9 °C
  unfolding enthalpy (calorimetric): 61.4 kcal/mol

Source: FireProtDB (doi:10.1093/protein/gzl019)
